Laboratory results published in US20150284471A1 (Amgen, published 2015).
Read-outs that look alike come from different tables or passages of the source.

T1: full-length wild type recombinant human LCAT protein that carries a His and Flag tag at the C-terminus (human, UniProt P04180 25-440)
T1 sequence: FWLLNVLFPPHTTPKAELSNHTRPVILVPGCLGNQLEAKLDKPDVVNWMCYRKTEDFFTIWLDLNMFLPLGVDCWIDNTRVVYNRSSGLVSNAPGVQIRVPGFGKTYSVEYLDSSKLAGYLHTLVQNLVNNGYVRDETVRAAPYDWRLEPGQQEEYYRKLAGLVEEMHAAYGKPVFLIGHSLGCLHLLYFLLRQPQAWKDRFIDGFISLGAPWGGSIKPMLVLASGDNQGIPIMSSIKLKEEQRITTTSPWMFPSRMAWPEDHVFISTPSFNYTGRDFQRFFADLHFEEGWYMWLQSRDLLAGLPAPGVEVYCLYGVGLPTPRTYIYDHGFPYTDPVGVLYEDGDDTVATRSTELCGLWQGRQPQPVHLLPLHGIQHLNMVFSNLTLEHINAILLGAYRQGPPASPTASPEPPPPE

T2: full-length wild type recombinant human LCAT (human, UniProt P04180 25-440)
T2 construct: also called huLCAT; hLCAT
T2 sequence: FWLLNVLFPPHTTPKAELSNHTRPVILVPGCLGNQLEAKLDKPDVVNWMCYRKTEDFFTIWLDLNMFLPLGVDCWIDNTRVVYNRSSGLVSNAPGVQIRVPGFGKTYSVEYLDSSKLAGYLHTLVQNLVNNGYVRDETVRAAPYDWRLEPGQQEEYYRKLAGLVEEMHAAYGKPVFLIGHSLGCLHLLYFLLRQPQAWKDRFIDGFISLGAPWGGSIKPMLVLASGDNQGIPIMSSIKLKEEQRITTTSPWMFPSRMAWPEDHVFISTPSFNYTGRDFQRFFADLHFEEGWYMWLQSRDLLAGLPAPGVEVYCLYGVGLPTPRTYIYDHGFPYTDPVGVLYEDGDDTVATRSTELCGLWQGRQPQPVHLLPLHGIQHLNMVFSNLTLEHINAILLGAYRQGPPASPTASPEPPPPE

T3: full-length wild type recombinant cynomolgus LCAT (cynomolgus monkey, UniProt Q08758 25-440 (Papio anubis entry))
T3 construct: also called cyno LCAT
T3 chain: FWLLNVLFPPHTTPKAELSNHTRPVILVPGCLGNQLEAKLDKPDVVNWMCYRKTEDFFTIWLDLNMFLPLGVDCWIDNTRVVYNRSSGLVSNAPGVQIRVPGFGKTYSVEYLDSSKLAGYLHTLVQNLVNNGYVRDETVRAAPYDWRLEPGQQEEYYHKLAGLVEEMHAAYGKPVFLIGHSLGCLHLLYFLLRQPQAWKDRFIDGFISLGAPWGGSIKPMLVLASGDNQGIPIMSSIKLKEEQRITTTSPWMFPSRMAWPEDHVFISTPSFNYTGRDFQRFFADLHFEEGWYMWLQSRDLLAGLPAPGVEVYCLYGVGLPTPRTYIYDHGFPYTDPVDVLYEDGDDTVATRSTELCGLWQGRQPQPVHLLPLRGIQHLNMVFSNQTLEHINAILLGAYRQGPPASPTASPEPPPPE

B1: 18E5 (antibody, human IgG2, kappa, V domains shown)
VH: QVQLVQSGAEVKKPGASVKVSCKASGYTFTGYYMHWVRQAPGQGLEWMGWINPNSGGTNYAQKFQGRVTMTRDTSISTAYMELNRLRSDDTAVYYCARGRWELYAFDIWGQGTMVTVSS
VL: EIVLTQSPGTLSLSPGERATLSCRASQSVSGSYLTWYQQKPGQAPRLLIYGASSRATGIPDRFSGSGSGTDFTLTISRLEPEDFAMYYCQQYGGSPPFTFGPGTKVDIKR
B2: 27C3 (antibody, human IgG2, lambda, V domains shown)
VH: QVQLQESGPGLVKPSQTLSLTCTVSGASISSGGYNWSWIRQHPGKGLEWIGYIYYSGSTYYNPSLKSRVTISVDTSKNQFSLKLSSVTAADTAVYYCARERGYCSSTSCSRVMDVWGQGTTVTVSS
VL: SSELTQDPAVSVALGQTVRITCQGDSLRSYYASWYQQKPGQAPVLVIYGKNNRPSGIPDRFSGSSSGNTASLTITGAQAEDEADYYCNSRDNIGNHQVFGGGTKLTVLG
notes: Incompletely N-glycosylated at Asn40 (AHo) of CDRH1
B3: 27C3(S42A, M136I/N107G, I112V) (antibody, human IgG2, lambda, V domains shown)
VH: QVQLQESGPGLVKPSQTLSLTCTVSGASISSGGYNWAWIRQHPGKGLEWIGYIYYSGSTYYNPSLKSRVTISVDTSKNQFSLKLSSVTAADTAVYYCARERGYCSSTSCSRVIDVWGQGTTVTVSS
VL: SSELTQDPAVSVALGQTVRITCQGDSLRSYYASWYQQKPGQAPVLVIYGKNNRPSGIPDRFSGSSSGNTASLTITGAQAEDEADYYCGSRDNVGNHQVFGGGTKLTVLG
notes: IgG2 lambda; The mutations are already in the entries
B4: 27C3(S42A, S131T, M136I/I112V) (antibody, human IgG2, lambda, V domains shown)
VH: QVQLQESGPGLVKPSQTLSLTCTVSGASISSGGYNWAWIRQHPGKGLEWIGYIYYSGSTYYNPSLKSRVTISVDTSKNQFSLKLSSVTAADTAVYYCARERGYCSSTTCSRVIDVWGQGTTVTVSS
VL: SSELTQDPAVSVALGQTVRITCQGDSLRSYYASWYQQKPGQAPVLVIYGKNNRPSGIPDRFSGSSSGNTASLTITGAQAEDEADYYCNSRDNVGNHQVFGGGTKLTVLG
notes: as for B3
B5: 27C3(S42A, S131T, M136I/N107G) (antibody, human IgG2, lambda, V domains shown)
VH: QVQLQESGPGLVKPSQTLSLTCTVSGASISSGGYNWAWIRQHPGKGLEWIGYIYYSGSTYYNPSLKSRVTISVDTSKNQFSLKLSSVTAADTAVYYCARERGYCSSTTCSRVIDVWGQGTTVTVSS
VL: SSELTQDPAVSVALGQTVRITCQGDSLRSYYASWYQQKPGQAPVLVIYGKNNRPSGIPDRFSGSSSGNTASLTITGAQAEDEADYYCGSRDNIGNHQVFGGGTKLTVLG
notes: as for B3
B6: 27C3(S42A, S131T, M136I/N107G, I112V) (antibody, human IgG2, lambda, V domains shown)
VH: QVQLQESGPGLVKPSQTLSLTCTVSGASISSGGYNWAWIRQHPGKGLEWIGYIYYSGSTYYNPSLKSRVTISVDTSKNQFSLKLSSVTAADTAVYYCARERGYCSSTTCSRVIDVWGQGTTVTVSS
VL: SSELTQDPAVSVALGQTVRITCQGDSLRSYYASWYQQKPGQAPVLVIYGKNNRPSGIPDRFSGSSSGNTASLTITGAQAEDEADYYCGSRDNVGNHQVFGGGTKLTVLG
notes: as for B3
B7: 27C3(S42A, S131T, V135I, M136I/I112V) (antibody, human IgG2, lambda, V domains shown)
VH: QVQLQESGPGLVKPSQTLSLTCTVSGASISSGGYNWAWIRQHPGKGLEWIGYIYYSGSTYYNPSLKSRVTISVDTSKNQFSLKLSSVTAADTAVYYCARERGYCSSTTCSRIIDVWGQGTTVTVSS
VL: SSELTQDPAVSVALGQTVRITCQGDSLRSYYASWYQQKPGQAPVLVIYGKNNRPSGIPDRFSGSSSGNTASLTITGAQAEDEADYYCNSRDNVGNHQVFGGGTKLTVLG
notes: as for B3
B8: 27C3(S42A, S131T, V135I, M136I/N107G) (antibody, human IgG2, lambda, V domains shown)
VH: QVQLQESGPGLVKPSQTLSLTCTVSGASISSGGYNWAWIRQHPGKGLEWIGYIYYSGSTYYNPSLKSRVTISVDTSKNQFSLKLSSVTAADTAVYYCARERGYCSSTTCSRIIDVWGQGTTVTVSS
VL: SSELTQDPAVSVALGQTVRITCQGDSLRSYYASWYQQKPGQAPVLVIYGKNNRPSGIPDRFSGSSSGNTASLTITGAQAEDEADYYCGSRDNIGNHQVFGGGTKLTVLG
notes: as for B3
B9: 27C3(S42A, S131T, V135I, M136I/N107G, I112V) (antibody, human IgG2, lambda, V domains shown)
VH: QVQLQESGPGLVKPSQTLSLTCTVSGASISSGGYNWAWIRQHPGKGLEWIGYIYYSGSTYYNPSLKSRVTISVDTSKNQFSLKLSSVTAADTAVYYCARERGYCSSTTCSRIIDVWGQGTTVTVSS
VL: SSELTQDPAVSVALGQTVRITCQGDSLRSYYASWYQQKPGQAPVLVIYGKNNRPSGIPDRFSGSSSGNTASLTITGAQAEDEADYYCGSRDNVGNHQVFGGGTKLTVLG
notes: as for B3
B10: 27C3(S42A, S133T, M136I/I112V) (antibody, human IgG2, lambda, V domains shown)
VH: QVQLQESGPGLVKPSQTLSLTCTVSGASISSGGYNWAWIRQHPGKGLEWIGYIYYSGSTYYNPSLKSRVTISVDTSKNQFSLKLSSVTAADTAVYYCARERGYCSSTSCTRVIDVWGQGTTVTVSS
VL: SSELTQDPAVSVALGQTVRITCQGDSLRSYYASWYQQKPGQAPVLVIYGKNNRPSGIPDRFSGSSSGNTASLTITGAQAEDEADYYCNSRDNVGNHQVFGGGTKLTVLG
notes: as for B3
B11: 27C3(S42A, S133T, M136I/N107G) (antibody, human IgG2, lambda, V domains shown)
VH: QVQLQESGPGLVKPSQTLSLTCTVSGASISSGGYNWAWIRQHPGKGLEWIGYIYYSGSTYYNPSLKSRVTISVDTSKNQFSLKLSSVTAADTAVYYCARERGYCSSTSCTRVIDVWGQGTTVTVSS
VL: SSELTQDPAVSVALGQTVRITCQGDSLRSYYASWYQQKPGQAPVLVIYGKNNRPSGIPDRFSGSSSGNTASLTITGAQAEDEADYYCGSRDNIGNHQVFGGGTKLTVLG
notes: as for B3
B12: 27C3(S42A, S133T, M136I/N107G, I112V) (antibody, human IgG2, lambda, V domains shown)
VH: QVQLQESGPGLVKPSQTLSLTCTVSGASISSGGYNWAWIRQHPGKGLEWIGYIYYSGSTYYNPSLKSRVTISVDTSKNQFSLKLSSVTAADTAVYYCARERGYCSSTSCTRVIDVWGQGTTVTVSS
VL: SSELTQDPAVSVALGQTVRITCQGDSLRSYYASWYQQKPGQAPVLVIYGKNNRPSGIPDRFSGSSSGNTASLTITGAQAEDEADYYCGSRDNVGNHQVFGGGTKLTVLG
notes: as for B3
B13: 25B7 (antibody, V domains shown)
VH: EVQLLESGGGLVQPGGSLRLSCAASGFTFRSYAMNWVRQAPGKGLEWVSTISGSGGSTHYADSVKGRFTISRDNSKNTLYLQLSSLRAEDTAVYYCAKGIAAADYYYYYGMDVWGQGTTVTVSS
VL: SYEVTQPPSVSVSPGQTASITCSGDKLGDKNACWYQQRPGQSPVLVIYQNSKRPSGIPERFSGSNSGNTATLTISGTQAMDEADYYCQAWDSSTVFGGGTRLEVLG
notes: The heavy chain entry ends after CH1 with a tag remnant

What was measured:
[1] = biological target: T1, full-length wild type recombinant human …; assay: cell-based or functional assay
[2] = biological target: T2, full-length wild type recombinant human …; assay: BIAcore 3000 SPR, antibody captured on goat anti-human IgG, LCAT as analyte, 1:1 fit
Method: (§1) Biosensor analysis was conducted at 25° C. in a HBS-EP buffer system (10 mM HEPES pH 7.4, 150 mM NaCl, 3 mM EDTA, 0.005% Surfactant P20) using a Biacore 3000 optical biosensor equipped with a CMS sensor chip. All reagents were kept at 4° C. prior to injection.
(§2) Goat anti-human IgG (30 mg/mL) (abcam) was immobilized (10000 RU) over flow cells 1-4 via standard amine coupling and followed by ethanolamine blocking. Each antibody (150 ng/mL) was captured (−100 RU) on a separate flow cell and analyzed simultaneously in sets of three. Flow cell 1 was used as the reference flow cell.
(§3) The data were fit to a 1:1 binding model (global Rmax) via Scrubber2 software. In some cases the highest concentrations were omitted to provide a better fit to the 1:1 binding model.

[3] = biological target: T2, full-length wild type recombinant human …; assay: cell-based or functional assay
[4] = biological target: T3, full-length wild type recombinant …; assay: Binding Affinity (nM), Table 10; method not restated (BIAcore of Example 3 presumed)
[5] = biological target: T2, full-length wild type recombinant human …; assay: as above
[6] = biological target: T3, full-length wild type recombinant …; assay: BIAcore 3000 SPR, antibody captured on goat anti-human IgG, LCAT as analyte, 1:1 fit
Method: as §1, §2, §3

[7] = biological target: T2, full-length wild type recombinant human …; assay: cell-based or functional assay; remark: listed apart in the source
[8] = biological target: T3, full-length wild type recombinant …; assay: Binding Affinity (nM), Table 12; method not restated (BIAcore of Example 3 presumed)
[9] = biological target: T2, full-length wild type recombinant human …; assay: as above
[10] = biological target: T2, full-length wild type recombinant human …; assay: cell-based or functional assay; remark: listed apart in the source
[11] = biological target: T3, full-length wild type recombinant …; assay: BIAcore 3000 SPR, antibody captured on goat anti-human IgG, LCAT as analyte; cyno LCAT
Method: as §1, §2, §3

Binder	Kd [8] [nM]	Kd [9] [nM]	Activity [10] [%]	further results
B1	–	–	–	LCAT Activity (fold the vehicle control activity) [1]: 2.5 fold; Kd [2]: 1.01 nM
B2	–	–	–	Activity [3]: 100%; Kd [4]: 128 nM; Kd [5]: 1.15 nM; Kd [6]: 128 nM; Kd [2]: 1.15 nM; EC50 (read off the curve) [7]: ~4 mgAb/mL Plasma
B3	190	1.2	70	–
B4	198	3	65	–
B5	226	2.8	65	–
B6	181	1.3	89	–
B7	198	3	69	–
B8	226	2.8	70	–
B9	88	34	70	–
B10	88	0.3	46	–
B11	62	0.4	73	–
B12	8	0.5	83	–
B13	–	–	–	Kd [6]: 1.02 nM; Kd [2]: 2.24 nM; Kd [11]: 1.2 nM
